Source: the RNAGym collection of RNA variant scans (doi:10.7554/elife.80360)

B1: Hairpin Ribozyme (parent)
chain: GUCCUCUUUCACGUGCGCGUGAAAGAGAGAAGUGAACCAGAGAAACACACGUUGUGGUAUAUUACCUGGUA

Variants of: B1
Test: self-cleavage, relative activity (ratio to wild type); higher = more cleavage; co-transcriptional

Point of comparison: CUCCUCUUUCAUGUGCGCGUGAAAGAGAGAAGUGAACCAGAGAAACACACGUUGUGGUAUAUUACCUGGUA, self-cleavage 0.213. Against it:
- AUCCUCUUUCACGUGCGCGUGAAAGAGAGAAGUGAACCAGAGAAACACACGUUGUGGAAUAUUACCUGGUA — lower, 0.186
- AUCCUCUUUCACGUGCGCGUGAAAGAGAGAAGUGAACCAGAGAAACACACGUUGUGGGAUAUUACCUGGUA — higher, 0.256
- AUCCUCUUUCACGUGCGCGUGAAAGAGAGAAGUGAACCAGAGAAACACACGUUGUGGUAUAAUACCUGGUA — lower, 0.192
- CUCCUCUUUCACGUGCGCGUGAAAGAGAGAAGUGAACCAGAGAAACACACGUUGUGGUCUAUUACCUGGUA — lower, 0.113
- CUCCUCUUUCACGUGCGCGUGAAAGUGAGAAGUGAACCAGAGAAACACACGUUGUGGUAUAUUACCUGGUA — lower, 0.18
- CUCGUCUUUCACGUGCGCGUGAAAGAGAGAAGUGAACCAGAGAAACACACGUUGUGGUAUAUUACCUGGUA — higher, 0.301
- AUCCUCUUUCACGUGCGCGUGAAAGAGAGAAGUGAACCAGAGAAACACACGUUAUGGUAUAUUACCUGGUA — lower, 0.191
- AUCCUCUUUCACGUGCGCGUGAAAGAGAGAAGUGAACCAGAGAAACACACGUUUUGGUAUAUUACCUGGUA — lower, 0.153
- AUCCUCUUUCACGUGCGCGUGAAAGAGAGAAGUGAACCAGAGAAACACACGUUGCGGUAUAUUACCUGGUA — higher, 0.243
- AUCCUCUUUCACGUGCGCGUGAAAGAGAGAAGUGAACCAGAGAAACACACGUUGAGGUAUAUUACCUGGUA — higher, 0.229
- CUCCUCUUUCACGUGCGCGUGAAAGAGAGAAGUGAACCAGAGAAACACACGUUGUGGUAUAUUACCUGGUC — higher, 0.328
- CUCCUCUUUCACGUGCGCGUGAAAGAGAGAAGUGAACCAGAGAAACACACGUUGUGGUAUAUUACCUGGUU — lower, 0.153
- CUUCUCUUUCACGUGCGCGUGAAAGAGAGAAGUGAACCAGAGAAACACACGUUGUGGUAUAUUACCUGGUA — lower, 0.18
- CUCCUCUUUCACGUGUGCGUGAAAGAGAGAAGUGAACCAGAGAAACACACGUUGUGGUAUAUUACCUGGUA — lower, 0.198
- AUCCUCUUUCACGUGCGCGUAAAAGAGAGAAGUGAACCAGAGAAACACACGUUGUGGUAUAUUACCUGGUA — lower, 0.154
- AUCCUCUUUCACGUGCGCGUUAAAGAGAGAAGUGAACCAGAGAAACACACGUUGUGGUAUAUUACCUGGUA — lower, 0.127
- AUCCUCUUUCACGUGCGCGUGAAAGAGAGAAGUGAACCAGAGAAACAUACGUUGUGGUAUAUUACCUGGUA — lower, 0.0691
- AUCCACUUUCACGUGCGCGUGAAAGAGAGAAGUGAACCAGAGAAACACACGUUGUGGUAUAUUACCUGGUA — lower, 0.152
- CUCCUCUUUCAGGUGCGCGUGAAAGAGAGAAGUGAACCAGAGAAACACACGUUGUGGUAUAUUACCUGGUA — lower, 0.188
- CUCCUCUUUCAAGUGCGCGUGAAAGAGAGAAGUGAACCAGAGAAACACACGUUGUGGUAUAUUACCUGGUA — higher, 0.215
- CUCCUCUUUCCCGUGCGCGUGAAAGAGAGAAGUGAACCAGAGAAACACACGUUGUGGUAUAUUACCUGGUA — lower, 0.0386
- CUCCUCUUUCGCGUGCGCGUGAAAGAGAGAAGUGAACCAGAGAAACACACGUUGUGGUAUAUUACCUGGUA — lower, 0.194
- AUCCUCUUUCACGUGCGCGUGAAAGAGAGAAGUGAACCAGAGAAACACACGUUGUGCUAUAUUACCUGGUA — lower, 0.163
- CUCCUCUUUCACGUGCGCGUGAAAGAGAGAAGUGUACCAGAGAAACACACGUUGUGGUAUAUUACCUGGUA — higher, 0.254
- AUCCUCUUUCACGUGCGCGUGAAAGAGAGAAGUGAACCAGAGAAACACACCUUGUGGUAUAUUACCUGGUA — lower, 0.0527
- CUCCUCUUUCACGUGCGCGUGAACGAGAGAAGUGAACCAGAGAAACACACGUUGUGGUAUAUUACCUGGUA — higher, 0.32
- CUCCUCUUUCACGUGCGCGUGUAAGAGAGAAGUGAACCAGAGAAACACACGUUGUGGUAUAUUACCUGGUA — lower, 0.103
- AUCCUCUUUCACGUGCGCGUGAAAGAGAGAAGUGAACCAGACAAACACACGUUGUGGUAUAUUACCUGGUA — the same, 0.213
- CUCCUCUUUCACGUGCGCGUGAAAGAGUGAAGUGAACCAGAGAAACACACGUUGUGGUAUAUUACCUGGUA — higher, 0.247
- CUCCUAUUUCACGUGCGCGUGAAAGAGAGAAGUGAACCAGAGAAACACACGUUGUGGUAUAUUACCUGGUA — higher, 0.245
- AUCCUCUUUCACGAGCGCGUGAAAGAGAGAAGUGAACCAGAGAAACACACGUUGUGGUAUAUUACCUGGUA — lower, 0.127
- CUCCUCUUUCACGUGCGCGUGAAAGAGAGAAGUGAACCAGAGAAACACACGUUGUGGUAUAUUGCCUGGUA — lower, 0.143
- CUCCUCUUUCACGUGCGCGUGAAAGAGAGAAGUGAACCAGAGAAACACACGUUGUGGUAUAUUUCCUGGUA — lower, 0.107
- CUCCUCUUUCACGUGCGCGUGAAAGAGAGCAGUGAACCAGAGAAACACACGUUGUGGUAUAUUACCUGGUA — lower, 0.207
- AUCCUCUGUCACGUGCGCGUGAAAGAGAGAAGUGAACCAGAGAAACACACGUUGUGGUAUAUUACCUGGUA — lower, 0.158
- CUCCUCUUUCACGUGCGCGUGAGAGAGAGAAGUGAACCAGAGAAACACACGUUGUGGUAUAUUACCUGGUA — lower, 0.132
- AUCCUCUUUCACCUGCGCGUGAAAGAGAGAAGUGAACCAGAGAAACACACGUUGUGGUAUAUUACCUGGUA — lower, 0.119
